According to patent publication US20220348651A1 (Novartis, published 2022):

Biological target: T1, recombinant murine ENTPD2 (residues 29-462) used in crystallography studies (mouse, UniProt O55026 29-462, N-linked glycosylation observed at Asn129 and Asn378)
T1 construct: also called murine ENTPD2 ectodomain; mENTPD2
T1 sequence: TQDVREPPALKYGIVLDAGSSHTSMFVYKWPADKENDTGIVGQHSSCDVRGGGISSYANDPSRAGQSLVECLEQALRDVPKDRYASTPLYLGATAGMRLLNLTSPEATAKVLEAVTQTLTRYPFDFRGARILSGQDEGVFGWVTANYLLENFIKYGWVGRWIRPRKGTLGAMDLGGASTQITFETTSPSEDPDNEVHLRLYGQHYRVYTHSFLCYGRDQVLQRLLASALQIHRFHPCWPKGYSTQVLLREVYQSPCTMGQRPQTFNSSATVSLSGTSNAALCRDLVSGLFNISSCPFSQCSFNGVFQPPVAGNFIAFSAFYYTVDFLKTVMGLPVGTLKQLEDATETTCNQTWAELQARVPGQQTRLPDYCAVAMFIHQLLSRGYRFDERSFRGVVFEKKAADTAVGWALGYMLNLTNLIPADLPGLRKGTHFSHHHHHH
Assay: X-ray crystal structure of the complex
Procedure: Structure determination by molecular replacement was performed using the previously determined human ENTPD2 coordinates and Fab coordinates from PDB code 3QRG.

buried solvent-accessible surface: ~16300 Å2
B1: ANTI-mouse ENTPD2 FAB24 (Fab, V domains shown)
VH: QVQLVQSGAELKQPGQSVKISCKASGYTFTHYGMNWVKQAPGQGLKWMGWINTDTGNPTYADDFKGRFVFSLDTSVSTAYLQISNLKNEDTATYYCVRYGTLYSGYGFFFDSWGQGTLVTVSS
VL: DIMMTQSPSSLSVSAGEKATITCKSSQSLFNSNTNKNYLNWYLQKPGQSPKLLFYYASTRHTGVPDRFIGSGSGTDFTLTITSVQDEDLADYYCQQWYSYPWTFGPGTKLEIKR
modifications: N-terminal residue observed and modeled as pyroglutamate in the crystal structure
notes: Fab with the variable regions of mAb13; human CH1 and kappa constant regions; also called anti-murine ENTPD2 Fab MAB13
